# Results as given in IntAct's records for PubMed 17496148.
# B1: Anti-sigma-E factor RseA (Escherichia coli (strain K12)), P0AFX7 (parent)
# chain: MQKEQLSALMDGETLDSELLNELAHNPEMQKTWESYHLIRDSMRGDTPEVLHFDISSRVMAAIEEEPVRQPATLIPEAQPAPHQWQKMPFWQKVRPWAAQLTQMGVAACVSLAVIVGVQHYNGQSETSQQPETPVFNTLPMMGKASPVSLGVPSEATANNGQQQQVQEQRRRINAMLQDYELQRRLHSEQLQFEQAQTQQAAVQVPGIQTLGTQSQ
# partner: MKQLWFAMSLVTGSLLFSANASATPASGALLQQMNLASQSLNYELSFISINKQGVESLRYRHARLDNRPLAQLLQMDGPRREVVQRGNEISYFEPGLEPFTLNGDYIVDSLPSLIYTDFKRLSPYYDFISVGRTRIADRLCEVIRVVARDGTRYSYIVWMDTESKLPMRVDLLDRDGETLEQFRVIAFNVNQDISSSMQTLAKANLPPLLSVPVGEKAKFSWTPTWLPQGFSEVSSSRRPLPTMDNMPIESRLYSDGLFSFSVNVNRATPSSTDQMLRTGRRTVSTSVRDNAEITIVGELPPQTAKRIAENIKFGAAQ
# Variants of: B1
# Conditions: with rseb_ecoli rseB
row,Variant,effect of a mutation on the interaction
1,R171E;R172E,disrupting interaction strength
2,R184E;R185E,disrupting interaction strength
3,R171A;R172A,disrupting interaction strength
4,R184A;R185A,disrupting interaction strength
